In one experiment the target is T1, macaca IL6R-his protein (macaca mulatta).
T1 chain: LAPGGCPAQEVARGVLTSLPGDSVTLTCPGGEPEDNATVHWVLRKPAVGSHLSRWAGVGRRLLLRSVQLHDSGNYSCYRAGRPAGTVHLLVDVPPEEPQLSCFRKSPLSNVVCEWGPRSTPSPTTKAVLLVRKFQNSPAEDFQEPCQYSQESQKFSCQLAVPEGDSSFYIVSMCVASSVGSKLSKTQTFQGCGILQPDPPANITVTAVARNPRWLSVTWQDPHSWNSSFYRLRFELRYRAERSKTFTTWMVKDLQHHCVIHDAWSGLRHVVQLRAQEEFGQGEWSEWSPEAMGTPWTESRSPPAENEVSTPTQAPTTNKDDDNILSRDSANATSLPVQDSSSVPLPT
Put plainly: indirect ELISA on plate-coated macaca IL6R-his. As to the method: The anti-IL6R antibodies were tested for their cross-reaction with macaca IL6R. Briefly, 96-well micro plates were coated with 2 μg/ml macaca IL6R-his protein (in house made, amino acid sequence set forth in SEQ ID NO:45) in carbonate/bicarbonate buffer (pH 9.6), 100 μl/well, for 2 hours at 37° C. ELISA plates were washed once with wash buffer (PBS+0.05% v/v Tween-20, PBST) and then blocked with 200 μl/well blocking buffer (5% w/v non-fatty milk in PBST) for 2 hours at 37° C. Plates were washed 4 times and incubated with 100 μl/well serially diluted anti-IL6R antibodies of the disclosure or controls, starting at 66.67 nM with 5-fold serial dilution in PBST with 2.5% w/v non-fat milk, and incubated at 37° C. for 40 minutes. ELISA plates were washed 4 times again and incubated with 100 μl/well Peroxidase AffiniPure Goat Anti-Mouse IgG, Fcγ Fragment Specific (1:5000 dilution in PBST buffer, Jackson ImmunoResearch Laboratories, Inc., Cat #115-035-071) for 40 minutes at 37° C. After the final wash, plates were incubated with 100 μl/well TMB (InnoReagents). The reaction was stopped 3-10 minutes later at room temperature with 50 μl/well 1M H₂SO₄, and the absorbance of each well was read on a microplate reader using dual wavelength mode with 450 nm for TMB and 630 nm as the reference wavelength. Then the OD (450-630) values were plotted against antibody concentration. Data was analyzed using Graphpad Prism software and EC₅₀ values were reported.
(In general: An ELISA detects its analyte on a solid surface through an enzyme-linked reagent.)

Experiment [1] addresses T2, human IL6R-Fc protein (human, biotin-labeled in the ELISAs (sites not given)).
T2 construct: In house made; also called biotin-labeled human IL6R-Fc protein
Put plainly: capture ELISA: antibody captured on anti-IgG F(ab')2 coated plate, then biotin-labeled human IL6R-Fc, streptavidin-HRP. As to the method: (§1) For the capture ELISA, 96-well micro plates were coated with 2 μg/ml AffiniPure Goat Anti-Mouse IgG, F(ab′)₂ fragment specific (Jackson ImmunoResearch Laboratories, Inc., Cat #115-005-072) in PBS, 100 μl/well, and incubated for 2 hours at 37° C. Plates were washed once with wash buffer (PBS+0.05% v/v Tween-20, PBST) and then blocked with 200 μl/well blocking buffer (5% w/v non-fatty milk in PBST) overnight at 4° C. […] Plates containing captured anti-IL6R antibodies were incubated with biotin-labeled human IL6R-Fc protein (prepared in house, SEQ ID NO: 43, 39.5 ng/ml in 2.5% w/v non-fatty milk in PBST, 100 μl/well) for 40 minutes at 37° C., washed 4 times, and incubated with streptavidin conjugated HRP (1:10000 dilution in PBST, Jackson ImmunoResearch Laboratories, Inc., Cat #016-030-084, 100 μl/well) for 40 minutes at 37° C. After a final wash, plates were incubated with 100 μl/well ELISA substrate TMB (InnoReagents, Cat #TMB-S-002). The reaction was stopped 3-10 minutes later at room temperature with 50 μl/well 1M H₂SO₄, and the absorbance of each well was read on a microplate reader using dual wavelength mode at 450 nm for TMB and 630 nm as the reference wavelength. Then the OD (450-630) values were plotted against antibody concentration. Data was analyzed using Graphpad Prism software and EC₅₀ values were reported.
For the capture ELISA, AffiniPure Goat Anti-Human IgG, F(ab′)₂ fragment specific (Jackson Immuno Research, Cat #109-005-097) was used instead of AffiniPure Goat Anti-Mouse IgG, F(ab′)₂ fragment specific, 100 μl/well.

The target in experiment [2] is T2, human IL6R-Fc protein. The experiment is described as above. Here is the method: as §1
Target sequence in this assay (chain, as listed by the source limits assumed): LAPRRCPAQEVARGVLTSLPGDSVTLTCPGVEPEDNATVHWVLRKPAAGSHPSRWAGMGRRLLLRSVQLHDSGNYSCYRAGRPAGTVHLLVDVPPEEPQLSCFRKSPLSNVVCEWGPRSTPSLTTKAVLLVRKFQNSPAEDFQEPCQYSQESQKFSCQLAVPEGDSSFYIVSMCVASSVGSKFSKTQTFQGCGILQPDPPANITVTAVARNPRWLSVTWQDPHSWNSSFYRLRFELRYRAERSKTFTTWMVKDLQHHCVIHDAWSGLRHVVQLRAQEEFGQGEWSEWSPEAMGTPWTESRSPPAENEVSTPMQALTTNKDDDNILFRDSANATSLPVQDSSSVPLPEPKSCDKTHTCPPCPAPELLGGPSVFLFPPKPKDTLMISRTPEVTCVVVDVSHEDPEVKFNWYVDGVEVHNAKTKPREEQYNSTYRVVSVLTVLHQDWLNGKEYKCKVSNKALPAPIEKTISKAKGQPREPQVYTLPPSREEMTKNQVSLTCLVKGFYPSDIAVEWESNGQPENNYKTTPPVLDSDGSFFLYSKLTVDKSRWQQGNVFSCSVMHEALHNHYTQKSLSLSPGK
For the capture ELISA, 96-well micro plates were coated with 2 μg/ml goat anti-human IgG (AffiniPure Goat Anti-Human IgG, F(ab′)₂ fragment specific, Jackson ImmunoResearch Laboratories, Inc., Cat #109-005-097) instead of goat anti-mouse IgG F(ab′)₂ fragment, 100 μl/well.
This is another data set of the same source.

Experiment [3] addresses T2, human IL6R-Fc protein. The experiment in a line: ligand blocking ELISA: antibody pre-incubated with biotin-labeled human IL6R-Fc, added to plate-coated human IL6 (blocked ligand: human IL6).
The target in experiment [4] is T2, human IL6R-Fc protein. The experiment in a line: benchmark blocking ELISA: antibody pre-incubated with biotin-labeled human IL6R-Fc, added to plate-coated Tocilizumab (competitor: Tocilizumab).

Numbering of substitutions follows the chain as printed. Like-named read-outs stand apart in the source and are kept apart here.

Among the data in patent US20230167182A1 (BIOSION, published 2023) are EC50 and IC50 values, retold here.

B1: Tocilizumab (antibody, human IgG1, kappa, V domains shown)
VH: QVQLQESGPGLVRPSQTLSLTCTVSGYSITSDHAWSWVRQPPGRGLEWIGYISYSGITTYNPSLKSRVTMLRDTSKNQFSLRLSSVTAADTAVYYCARSLARTTAMDYWGQGSLVTVSS
VL: DIQMTQSPSSLSASVGDRVTITCRASQDISSYLNWYQQKPGKAPKLLIYYTSRLHSGVPSRFSGSGSGTDFTFTISSLQPEDIATYYCQQGNTLPYTFGQGTKVEIKR
notes: In house made; also called benchmark; Actemra
As for B1, the EC50 stood at 0.0575 nM with macaca IL6R-his protein, 0.18 nM with human IL6R-Fc protein [1] and 0.504 nM with human IL6R-Fc protein [2]. Also, the IC50 with human IL6R-Fc protein [3] stood at 0.616 nM; with human IL6R-Fc protein [4], 0.77 nM.

B2: humanized antibody hu1H7-V5 (antibody, human IgG1, kappa, V domains shown)
VH: QVQLVQSGAEVKKPGASVKVSCKASGYTFTNYWMHWVRQAPGQGLEWIGEINPTNGRTNYNENFKSRVTLTVDTSTSTVYMELSSLRSEDTAVYYCARLNTHYVFDSWGQGTLVTVSS
VL: EIVLTQSPGTLSLSPGERATLSCSVSSSISSNYLHWYQQKPGLSPRLLISRTSTLASGIPARFSGSGSGTEYTLTISRMQSEDFAVYYCQQGSGIPFTFGQGTKLEIKR
notes: Human IgG1 / kappa
B2 came in with an EC50 with human IL6R-Fc protein [2] of 0.31 nM.

B3: mouse anti-IL6R monoclonal antibody 1H7 (antibody, V domains shown)
VH: QVQLQQPGTELVKPGASVKLSCKASGYTFTNYWMHWVKQRPGQGLDWIGEINPTNGRTNYNENFKSKATLTVDKSSSTAYMQLSSLTSEDSAVYYCARLNTHYVFDSWGQGTTLTLSS
VL: EIVLTQSPTTLAASPGEKITFTCSVSSSISSNYLHWYQQKPGFSPKLLISRTSTLASGVPARFSGSGSGTSYSLTIGTMEAEDVATYYCQQGSGIPFTFGSGTKLELK
notes: Mouse hybridoma mAb
In turn, B3 had an EC50 in the experiment with human IL6R-Fc protein [2] of 0.164 nM.

B4: Chimeric 1H7 (antibody, human IgG1, kappa, V domains shown)
VH: B3 VH
VL: EIVLTQSPTTLAASPGEKITFTCSVSSSISSNYLHWYQQKPGFSPKLLISRTSTLASGVPARFSGSGSGTSYSLTIGTMEAEDVATYYCQQGSGIPFTFGSGTKLELKR
notes: Mouse variable regions on human IgG1 / human kappa constant regions; also called chimeric antibody 1H7
Molecule B4 gave an EC50 with human IL6R-Fc protein [2] of 0.201 nM.

B5: mouse anti-IL6R monoclonal antibody 1G1 (antibody, V domains shown)
VH: B3 VH with T9A, N31S, Q39V, D46E, N63D, D73E, K74S, L83F, S107Y, L116V
VL: B3 VL with T10I, S50Y, T54N, L107I
notes: Mouse hybridoma mAb
Consider B5, for which the EC50 with macaca IL6R-his protein stood at 0.501 nM.

B6: mouse anti-IL6R monoclonal antibody 1H9 (antibody, V domains shown)
VH: QVQLQQPGAELVKPGASVKLSCKASGYTFTSYWMHWVKLRPGQGLEWIGEINPTNGRTNYYEKFKNRATLTADKSSSTAYMQLSSLTFEDSAVYFCAKFHYSRWYFDVWGTGTTVTVSS
VL: DIVMTQSQKFMSTSVGDRVSITCKASQNVGTAVVWYQQKPGQSPKLLINPASNRYTGVPDRFTGSGSGTDFTLTISNMQSEDLADYFCQQYSSYPLTFGAGTKLELK
notes: Mouse hybridoma mAb
On to B6, for which the EC50 was 0.341 nM in the experiment with macaca IL6R-his protein and 0.0834 nM with human IL6R-Fc protein [1]. Moreover, the IC50 in the experiment with human IL6R-Fc protein [3] was 0.274 nM; in the experiment with human IL6R-Fc protein [4] it was 0.394 nM.

In general, EC50 refers to the concentration needed to bring the measured effect to its halfway point. By IC50 is commonly meant the concentration at which inhibition is half-maximal. High values mean weaker potency, low ones greater potency.
